What all share (assay): split reporter
The target of test [1] is ADGRL4-CTF1 F409A (human) (UniProt Q9HBW9).
Test [2] deals with ADGRL4-CTF1 H408A (human) (UniProt Q9HBW9).
The target of test [3] is ADGRL4-CTF1 I411A (human) (UniProt Q9HBW9).
Test [4] concerns the target ADGRL4-CTF1 L412A (human) (UniProt Q9HBW9).
Test [5] has as its target ADGRL4-CTF1 S414A (human) (UniProt Q9HBW9).

A value given as a limit tells only on which side of the number the result lay.

As for “LgBiT-mini-Gq (mini-Gs/q version 70) (domain or fragment)”, in test [1], the Gq coupling as percent of wild-type CTF1 came out at 12%. For the same substance, the reduction of Gq coupling relative to wild-type CTF1 in test [2], in test [3], in test [4] and in test [5] was greater than 50% throughout.

(Values after doi:10.1101/2025.10.03.680274.)
